Our source for the stoichiometry N values is article PMC3551895.

The target in this assay is vibrillin βγ-crystallin domain (Vibrio cholerae). In words: SEC. On the technique in general: Size exclusion chromatography separates by hydrodynamic size, large species first.

What is called stoichiometry N is a count of units in the complex or per binding partner. “vibrillin βγ-crystallin domain (domain or fragment)” showed a stoichiometry N of 6.
